These results are taken from the supplement of paper PMC10567573.

First the molecules themselves.
B1: KRT18 (parent)
chain: KSQDLAKIMADIRAQYDELARKNR
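Note: lentivirally expressed fusions sorted by FACS into six bins by GFP to DsRed ratio, PSI derived from sequencing read proportions per bin multiplied by bin number.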

The variants in this data set derive from B1. Kind of data set: protein stability index of a GFP-peptide fusion (GPS, HEK-293T) (PSI 1-6); higher = more stable. As to conditions: c terminus: a fixed tail appended.
For the variant KSQDLAKIMADIRAQYDELAWKNR, the protein stability index amounted to 2.47. Regarding KSQDLAKIMADIRAEYDELARKNR, the protein stability index is 2.01.

For KSQDLAKIMADIRASYDELARKNR, the protein stability index amounted to 2.57. To KSQDLAKIMADIRAGYDELARKNR belongs 3.43; to KSQDLAKIMADIRADYDELARKNR, 3.49; to KSQDLAKIMADIRANYDELARKNR, 3. The same measure for KSQDLAKIMADIRAIYDELARKNR: 1.96. The same measure for KSQDLAKIMADIRAMYDELARKNR: 2.14; for KSQDLAKIMADIRARYDELARKNR: 2.6.

Consider KSQDLAKIMADIRACYDELARKNR, for which the protein stability index worked out at 2.37. The same measure for KSQDLAKIMADIRATYDELARKNR: 2.24; for KSQDLAKIMADIRAVYDELARKNR: 2.06; for KSQDLAKIMADIRAPYDELARKNR: 3.84. Consider KSQDLAKIMADIRAHYDELARKNR, for which the protein stability index is 1.97. To KSQDLAKIMADIRAWYDELARKNR belongs 2.46. For KSQDLAKIMADIRAKYDELARKNR, the protein stability index came to 2.4. To KSQDLAKIMADIRALYDELARKNR belongs 1.9. KSQDLAKIMADIRAFYDELARKNR: the protein stability index was 2.34. The same measure for KSQDLAKIMADIRAYYDELARKNR: 2.16; for KSQDLAKIMADIRAAYDELARKNR: 2.06.

Consider KSQDLAKIMADIRAQYNELARKNR, for which the protein stability index worked out at 2.65. On to KSQDLAKIMADIRAQYSELARKNR, for which the protein stability index came out at 2.41. To KSQDLAKIMADIRAQYYELARKNR belongs 2.37; to KSQDLAKIMADIRAQYAELARKNR, 2.54; to KSQDLAKIMADIRAQYEELARKNR, 1.85.

Take KSQDLAKIMADIRAQYIELARKNR: the protein stability index came to 2.01. To KSQDLAKIMADIRAQYMELARKNR belongs 1.51; to KSQDLAKIMADIRAQYVELARKNR, 2.2; to KSQDLAKIMADIRAQYKELARKNR, 2.87. To KSQDLAKIMADIRAQYFELARKNR belongs 2.14. The same measure for KSQDLAKIMADIRAQYCELARKNR: 1.96; for KSQDLAKIMADIRAQYPELARKNR: 3.16. Turning to KSQDLAKIMADIRAQYWELARKNR, the protein stability index is 1.92. The same measure for KSQDLAKIMADIRAQYLELARKNR: 2.29. With KSQDLAKIMADIRAQYQELARKNR, the protein stability index was 2.13.

Consider KSQDLAKIMADIRAQYGELARKNR, for which the protein stability index came to 2.72.

Regarding KSQDLAKIMADIRAQYTELARKNR, the protein stability index worked out at 2.27. The same measure for KSQDLAKIMADIRAQYHELARKNR: 2.67; for KSQDLAKIMADIRAQYRELARKNR: 2.61. For KSQDLAKIMADIRKQYDELARKNR, the protein stability index came to 2.4. KSQDLAKIMADIRMQYDELARKNR: the protein stability index came to 2.67. To KSQDLAKIMADIRYQYDELARKNR belongs 3.27; to KSQDLAKIMADIRVQYDELARKNR, 2.68; to KSQDLAKIMADIRWQYDELARKNR, 1.97. The same measure for KSQDLAKIMADIRRQYDELARKNR: 2.71; for KSQDLAKIMADIRQQYDELARKNR: 2.14; for KSQDLAKIMADIRNQYDELARKNR: 2.73. To KSQDLAKIMADIRLQYDELARKNR belongs 2.73; to KSQDLAKIMADIRSQYDELARKNR, 3.63; to KSQDLAKIMADIRPQYDELARKNR, 3.66. Consider KSQDLAKIMADIRTQYDELARKNR, for which the protein stability index came out at 2.58. Take KSQDLAKIMADIRAQYDELRRKNR: the protein stability index amounted to 3.09. The same measure for KSQDLAKIMADIRAQYDELNRKNR: 2.93. The same measure for KSQDLAKIMADIRAQYDELDRKNR: 3.42; for KSQDLAKIMADIRAQYDELGRKNR: 3.19. For KSQDLAKIMADIRAQYDELQRKNR, the protein stability index was found to be 2.94.

As to KSQDLAKIMADIRAQYDELHRKNR, the protein stability index came to 3.12. The same measure for KSQDLAKIMADIRAQYDELFRKNR: 2.69. The same measure for KSQDLAKIMADIRAQYDELYRKNR: 1.71; for KSQDLAKIMADIRAQYDELLRKNR: 2.03. Consider KSQDLAKIMADIRAQYDELTRKNR, for which the protein stability index was found to be 2.52. To KSQDLAKIMADIRAQYDELMRKNR belongs 2.51; to KSQDLAKIMADIRAQYDELCRKNR, 2.38; to KSQDLAKIMADIRAQYDELPRKNR, 2.98. For the variant KSQDLAKIMADIRAQYDELIRKNR, the protein stability index turned out to be 2.47.

Consider KSQDLAKIMADIRAQYDELVRKNR, for which the protein stability index was 2.85.

Take KSQDLAKIMADIRAQYDELWRKNR: the protein stability index was found to be 1.67. The same measure for KSQDLAKIMADIRAQYDELSRKNR: 2.87.

In the case of KSQDLAKIMADIRAQYDELKRKNR, the protein stability index amounted to 3.19. To KSQDLAKIMADIRAQYDELERKNR belongs 4.03; to KSQDLAKIMADIRAQYDELARCNR, 2.32. To KSQDLAKIMADIRAQYDELARFNR belongs 2.43; to KSQDLAKIMADIRAQYDELARHNR, 3.1. The same measure for KSQDLAKIMADIRAQYDELARQNR: 2.92. Take KSQDLAKIMADIRAQYDELARENR: the protein stability index stood at 3.04. KSQDLAKIMADIRAQYDELARMNR: the protein stability index came to 2.44. The same measure for KSQDLAKIMADIRAQYDELARWNR: 1.88; for KSQDLAKIMADIRAQYDELARRNR: 2.79; for KSQDLAKIMADIRAQYDELARYNR: 2.29. The same measure for KSQDLAKIMADIRAQYDELARTNR: 2.45. The same measure for KSQDLAKIMADIRAQYDELARGNR: 3.04.

In the case of KSQDLAKIMADIRAQYDELARINR, the protein stability index is 1.89. The same measure for KSQDLAKIMADIRAQYDELARANR: 2.67; for KSQDLAKIMADIRAQYDELARDNR: 3.35; for KSQDLAKIMADIRAQYDELARVNR: 2.23. To KSQDLAKIMADIRAQYDELARNNR belongs 2.7. To KSQDLAKIMADIRAQYDELARSNR belongs 2.88. KSQDLAKIMADIRAQYDELARPNR: the protein stability index came out at 2.85. To KSQDLAKIMADIRAQYDELARLNR belongs 2.43.

As to KSQDLAKIMADIRAQYDELARKNA, the protein stability index was found to be 3.33. To KSQDLAKIMADIRAQYDELARKNC belongs 1.92; to KSQDLAKIMADIRAQYDELARKNF, 2.79; to KSQDLAKIMADIRAQYDELARKND, 3.81.

For the variant KSQDLAKIMADIRAQYDELARKNE, the protein stability index was 3.17.
